The target of test [1] is T1, PTHR1 on CHO-K1/Ga15/PTHR1 cells (UniProt Q03431 27-593, limits assumed).
T1 sequence (looked up): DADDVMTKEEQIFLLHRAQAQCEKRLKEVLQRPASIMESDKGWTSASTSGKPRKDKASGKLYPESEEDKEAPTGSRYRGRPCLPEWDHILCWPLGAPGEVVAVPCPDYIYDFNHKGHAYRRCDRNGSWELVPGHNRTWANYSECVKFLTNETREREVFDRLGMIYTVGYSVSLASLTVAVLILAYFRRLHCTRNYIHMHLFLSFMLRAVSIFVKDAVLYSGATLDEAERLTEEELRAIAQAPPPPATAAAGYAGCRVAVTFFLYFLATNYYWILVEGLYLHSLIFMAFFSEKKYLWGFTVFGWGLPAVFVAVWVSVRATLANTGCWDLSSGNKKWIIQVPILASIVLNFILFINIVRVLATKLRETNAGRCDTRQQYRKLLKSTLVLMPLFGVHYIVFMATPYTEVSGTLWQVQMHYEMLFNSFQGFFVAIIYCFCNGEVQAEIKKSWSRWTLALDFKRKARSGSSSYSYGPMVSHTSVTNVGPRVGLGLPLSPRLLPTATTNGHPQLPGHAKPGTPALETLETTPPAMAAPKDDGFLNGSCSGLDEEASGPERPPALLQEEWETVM
Put plainly: cell-based or functional assay.

Another test deals with T2, Flag-PTHR1-YFP (UniProt Q03431 27-593).
T2 sequence (looked up): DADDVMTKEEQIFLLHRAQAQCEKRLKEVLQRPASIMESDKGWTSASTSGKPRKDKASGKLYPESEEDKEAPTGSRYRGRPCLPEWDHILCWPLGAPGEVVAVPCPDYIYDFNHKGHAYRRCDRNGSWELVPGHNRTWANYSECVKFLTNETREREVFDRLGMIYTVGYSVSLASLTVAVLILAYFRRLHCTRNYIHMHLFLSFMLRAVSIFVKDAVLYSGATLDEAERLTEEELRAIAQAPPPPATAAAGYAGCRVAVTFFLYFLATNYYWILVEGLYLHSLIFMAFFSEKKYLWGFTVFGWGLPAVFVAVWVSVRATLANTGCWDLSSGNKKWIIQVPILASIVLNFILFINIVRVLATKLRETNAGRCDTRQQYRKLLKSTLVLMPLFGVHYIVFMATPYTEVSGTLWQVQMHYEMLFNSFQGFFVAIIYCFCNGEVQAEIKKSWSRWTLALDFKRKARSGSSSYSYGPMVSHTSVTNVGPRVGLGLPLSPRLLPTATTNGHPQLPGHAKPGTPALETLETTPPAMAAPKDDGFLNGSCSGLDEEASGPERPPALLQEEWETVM
Put plainly: cell-based or functional assay.

For VDFEIQLMQQRAQWIADYRIREFLDKLIAEIF [R1-94], in test [1], the “cAMP accumulation (HTRF): -log10EC50” value is -10.1 -log10EC50 (as headed) and the “cAMP accumulation (HTRF): Emax” value was found to be 90.8%.
Take AVAEIQLMHQRAKWEIQEIGIKITLELLKEYI [R2-37]: in the test with Flag-PTHR1-YFP, the “arrestin 2 recruitment (BRET): -log10EC50” value is -5.86 -log10EC50 (as headed) and the “arrestin 2 recruitment (BRET): Emax” value was 17. For the same molecule, in test [1], the “cAMP accumulation (HTRF): -log10EC50” value is -9.09 -log10EC50 (as headed) and the “cAMP accumulation (HTRF): Emax” value turned out to be 96.4%.
For AVAEIQLMHQRAKWKLELELKAFLDQILKDVL [R2-36], in the test with Flag-PTHR1-YFP, the “arrestin 2 recruitment (BRET): -log10EC50” value was -8.7 -log10EC50 (as headed) and the “arrestin 2 recruitment (BRET): Emax” value worked out at 7.53. In test [1], the “cAMP accumulation (HTRF): -log10EC50” value was -8.32 -log10EC50 (as headed) and the “cAMP accumulation (HTRF): Emax” value stood at 99%.
For the molecule AVAEIQLMHQRAKWELEFELFREFLKLLVDFF [I3 (R1-97)], in test [1], the “cAMP accumulation (HTRF): -log10EC50” value was -7.23 -log10EC50 (as headed) and the “cAMP accumulation (HTRF): Emax” value turned out to be 99.3%.
In the case of AVAEIQLMHQRAKWDLLIELVKLLHELLKEYI [R2-40], in the test with Flag-PTHR1-YFP, the “arrestin 2 recruitment (BRET): -log10EC50” value was -5.85 -log10EC50 (as headed) and the “arrestin 2 recruitment (BRET): Emax” value stood at 13.9. For the same molecule, in test [1], the “cAMP accumulation (HTRF): -log10EC50” value is -11.2 -log10EC50 (as headed) and the “cAMP accumulation (HTRF): Emax” value amounted to 95.1%.
As for AVAEIQLMHQRAKWRLEIELLKKLKEILKDVY [R2-34], in the test with Flag-PTHR1-YFP, the “arrestin 2 recruitment (BRET): -log10EC50” value is -8.41 -log10EC50 (as headed) and the “arrestin 2 recruitment (BRET): Emax” value amounted to 7.61. Besides, in test [1], the “cAMP accumulation (HTRF): -log10EC50” value is -6.98 -log10EC50 (as headed) and the “cAMP accumulation (HTRF): Emax” value was 96.1%.
As to AVAEIQLMHQRAKWRAEYELREMLLRLLEEIF [R1-96], in test [1], the “cAMP accumulation (HTRF): -log10EC50” value is -8.01 -log10EC50 (as headed) and the “cAMP accumulation (HTRF): Emax” value amounted to 99.7%.
On to GIAVITLMLLRAYLELLEELVKILHELLRRYH [R2-52], for which, in test [1], the “cAMP accumulation (HTRF): -log10EC50” value is -5.59 -log10EC50 (as headed) and the “cAMP accumulation (HTRF): Emax” value is 97.4%.
Take AVAEIQLMHQRAKWELQEIGIKITLDLLEAYL [R2-39]: in the test with Flag-PTHR1-YFP, the “arrestin 2 recruitment (BRET): -log10EC50” value was -7.7 -log10EC50 (as headed) and the “arrestin 2 recruitment (BRET): Emax” value is 6.88.
Regarding GIAVITLMVLRALLELQEIGRKITLELLKEYI [R2-51], in test [1], the “cAMP accumulation (HTRF): -log10EC50” value is -9.98 -log10EC50 (as headed) and the “cAMP accumulation (HTRF): Emax” value is 3.99%.
For GVAELQLMHDLAKIKLELELKVKLLEILKDVY [R2-49], in test [1], the “cAMP accumulation (HTRF): -log10EC50” value was -5.79 -log10EC50 (as headed) and the “cAMP accumulation (HTRF): Emax” value is 99.9%.
Consider AVAEIQLMHQRAKWGVELQLKVDLRRILEDVY [R2-35], for which, in the test with Flag-PTHR1-YFP, the “arrestin 2 recruitment (BRET): -log10EC50” value was -3.46 -log10EC50 (as headed) and the “arrestin 2 recruitment (BRET): Emax” value stood at 35.8. Besides, in test [1], the “cAMP accumulation (HTRF): -log10EC50” value was -8.01 -log10EC50 (as headed) and the “cAMP accumulation (HTRF): Emax” value worked out at 97%.
AVAEIQLMHQRAKWSILEELLKILTALLDEYI [R2-46]: in the test with Flag-PTHR1-YFP, the “arrestin 2 recruitment (BRET): -log10EC50” value was -6.73 -log10EC50 (as headed) and the “arrestin 2 recruitment (BRET): Emax” value is 8.34.
For the molecule AVAEIQLMHQRAKWELEYELFEMFLKLLEEIF [I1 (R1-100)], in test [1], the “cAMP accumulation (HTRF): -log10EC50” value is -7.28 -log10EC50 (as headed) and the “cAMP accumulation (HTRF): Emax” value is 99.9%.

(Values after patent publication US20220298217A1 (FLAGSHIP PIONEERING INNOVATIONS VI, published 2022).)
